Data: US20140079753A1, “BMP BINDING PEPTIDES” (Affinergy, LLC, priority 2011, published 2014)

Key:
BMP2 = molecular target: T1, BMP2 (Homo sapiens, UniProt P12643); experiment: BMP2 binding ELISA of synthetic truncation peptides; design: key: (−) no binding; (+) binding similar to that of full-length SEQ ID NO: 148 binding; (−/+) binding decreased relative to full-length SEQ ID NO: 148 binding; conditions: relative to full-length SEQ ID NO: 148, ELISA
T1 construct: purchased MEDTRONIC, INC
T1 sequence (P12643 283-396): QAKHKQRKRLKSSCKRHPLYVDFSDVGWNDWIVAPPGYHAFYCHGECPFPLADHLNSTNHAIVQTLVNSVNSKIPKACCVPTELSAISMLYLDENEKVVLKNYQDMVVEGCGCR
Procedure: The relative binding affinity of synthetic BMP binding peptides SEQ ID NOs: 54-56 for BMP2 is shown in FIG. 17 (SEQ ID NO: 54 (Peptide 1); SEQ ID NO: 55 (Peptide 2); SEQ ID NO: 56 (Peptide 3)). Briefly, the results shown in FIG. 17 were generated by immobilizing biotinylated BMP binding peptides on streptavidin coated plates. Serial dilutions of 100 nM, 20 nM, 4 nM, 0.8 nM, 0.16 nM, 0.032 nM 0.006 nM, and 0.001 nM of BMP-2 were incubated with the immobilized BMP binding peptides for 60 minutes, washed 5 times, and bound BMP quantified using ELISA using mouse anti-BMP2 antibody and anti-mouse IgG-alkaline phosphatase conjugate. In addition, the specificity of BMP binding peptide binding SEQ ID NO: 54 to various members of the BMP family was performed in a similar manner by titrating BMP2, BMP3, BMP5, BMP6, GDF5, GDF7, TGFb1, TGFb3, and PDGF-BB (see FIG. 18).
(§1) For the truncation analysis, peptides with one or more N or C-terminal deletions of SEQ ID NO: 148 were synthesized and tested for BMP2 binding using an ELISA assay. The truncation peptides are shown in Table 5 below along with the relative BMP2 binding activity that was measured for each of the peptides according to the procedure described herein above. The relative BMP2 binding activity is depicted as follows: (−) no binding; (+) binding similar to that of full-length SEQ ID NO: 148 binding; (−/+) binding decreased relative to full-length SEQ ID NO: 148 binding.

[1] = system: adipose derived stem cells (ASCs); experiment: Phage whole cell ELISA for ASC binding; conditions: ranking among SEQ ID NO: 1 mutagenesis variants of Table 2
Procedure: Peptides that bind adipose derived stem cells (ASCs) were identified by phage display biopanning. ASCs were culture amplified from processed liposuction aspirate (<3 passages) (ZEN-BIO, Research Triangle Park, N.C.). After biopanning, individual plaques were picked, grown overnight, and tested for ASC binding activity using whole cell ELISA according to the following procedure. Phage supernatant was incubated for 30 min at room temperature with ASC monolayers established by overnight culture in 96 well plates. Cells were washed four times with Dulbecco's Phosphate Buffered Saline (DPBS) containing 2% FBS, then incubated with 100 μl of horseradish peroxidase conjugated anti-M13 antibody. After 30 minutes at room temperature, cells were washed four times with DPBS containing 2% FBS. M13 antibody binding was detected by the addition of 3,3′,5,5′-Tetramethylbenzidine (TMB). Blue reaction product, indicating positive binding phage, was measured by absorbance at 370 nm in a microplate reader. For the phage displaying ASC binding activity, DNA sequences were analyzed and translated into peptide sequences using Vector NTI DNA Analysis software and are shown below in Table 1.
Mutagenesis of Cell Binding Peptide Sequence SEQ ID NO: 1. A focused phage display library was generated around the cell binding sequence SEQ ID NO: 1 with each nucleotide position varying in identity at a ratio of 70:10:10:10, with the original nucleotide being the dominant form. This is considered a form of “light” mutagenesis, retaining the majority of residue identities with a few amino acid identity changes. The construction of this “degenerate” phage library was performed according to the methods described in Kay et al., 1996. Three rounds of phage display biopanning were performed on ASCs to enrich for positive binding sequences. Phage showing positive binding to ASCs, identified by whole cell ELISA, were re-amplified, retested, and submitted for DNA sequencing to determine the insert amino acid sequences. In FIG. 14 the single letter amino acid sequence of SEQ ID NO: 1 is shown at the top in white letters with black shading. The phage that retained cell binding activity to adipose derived stem cells (ASCs) and fibroblasts are listed below SEQ ID NO: 1 with original amino acids in white with black shading. Amino acid substitutions are shown in black letters with white shading.

human ASCs = experiment: Flow cytometry binding of biotinylated peptides to cells (Neutravidin-PE); conditions: biotinylated peptide 25 μM, 30 min at 4° C, percent positivity vs Neutravidin-PE alone; data not shown
From the text: (§2) Synthetic biotinylated cell binding peptides SEQ ID NOs: 1 and 2 were examined for their ability to specifically bind ASCs compared to a number of other cells types including bone marrow mesenchymal stem cells (MSCs), dermal fibroblasts, red blood cells, monocytes, lymphocytes granulocytes, and platelets. The cell binding peptides were biotinylated as described herein at Example 2. Cultured cells of each type were either purchased (dermal fibroblasts) or isolated from human bone marrow (MSCs) or human blood. Cells were first harvested with 2 mM EDTA in DPBS and resuspended at 10^6/mL in PBS+2% fetal bovine serum (FBS). An aliquot of cells ([…]) was incubated in 50 μL of peptide solution (25 μM in PBS+FBS) for 30 min at 4° C. Cells were then washed twice in PBS+2% FBS with 300×g centrifugation for 5 min between washes. Fluorescently-tagged neutravidin (Neutravidin-PE from INVITROGEN) was then added to the cells to label biotinylated peptide bound to cells. Neutravidin-PE was diluted 1:250 from stock and applied at 50 μL to cells. Cells were then washed in PBS+FBS, and acquired on a BD FACSARRAY. Peptide reactivity was then measured as percent positivity relative to Neutravidin-PE staining without the addition of biotinylated peptide.

dermal fibroblasts = experiment: as above; conditions: biotinylated peptide 25 μM, 30 min at 4° C, percent positivity vs Neutravidin-PE alone; data not shown
From the text: as §2

rat fibroblasts = experiment: Cell capture by biotinylated peptide on streptavidin plate (CELLTITER GLO); assay type: cell-based; conditions: 45 min room temperature, cellular ATP, FIG. 15
Procedure: (§3) In this experiment, the ability of biotinylated cell binding peptides SEQ ID NOs: 1 and 2 to capture ASCs and fibroblasts from a single cell suspension onto a solid support was examined. The cell binding peptides were biotinylated as described herein at Example 2. The cell binding peptides and control peptides lacking cell binding activity were added to a 96 well plate containing immobilized streptavidin. After 30 min at room temperature, excess peptide was washed away with PBS+0.1% Tween 20, followed by 2 washes with PBS. Dilutions of single cell suspensions of either human ASCs (hASCs), rabbit ASCs, rat fibroblasts, or human dermal fibroblasts (hDermFib) were added to the peptide coated wells and incubated for 45 min at room temperature with gentle shaking. Wells were washed 3 times with DPBS+2% FBS. The number of attached cells was determined by measuring cellular ATP with CELLTITER GLO reagent from PROMEGA.

rabbit ASCs = experiment: as above; assay type: cell-based; conditions: 45 min room temperature, cellular ATP, FIG. 15
Procedure: as §3

[2] = system: human dermal fibroblasts (hDermFib); experiment: as above; assay type: cell-based; conditions: 45 min room temperature, cellular ATP, FIG. 15
Procedure: as §3

human ASCs (hASCs) = experiment: as above; assay type: cell-based; conditions: 45 min room temperature, cellular ATP, FIG. 15
Procedure: as §3

BMP2 (MEDTRONIC, INC.) = molecular target: T2, BMP2 (MEDTRONIC, INC.) (UniProt P12643 283-396, biotinylated with NHS-biotin (average of one biotin per protein molecule) in the phage ELISA; not biotinylated in the peptide ELISA); experiment: ELISA of synthetic truncation peptides on BMP2; legend in paragraph 124: (-) no binding
T2 construct: also called bone morphogenic protein 2
Procedure: as §1

Molecule: 148 (SIWDDWIGYSR) [compound 148]
- BMP2 binding (BMP2): +

Molecule: 185 (IWDDWIGYSR) [compound 185]
- BMP2 binding (BMP2): −

Molecule: 186 (WDDWIGYSR) [compound 186]
- BMP2 binding (BMP2): −

Molecule: 187 (DDWIGYSR) [compound 187]
- BMP2 binding (BMP2): −

Molecule: 188 (DWIGYSR) [compound 188]
- BMP2 binding (BMP2): −

Molecule: 189 (SIWDDWIGYS) [compound 189]
- BMP2 binding (BMP2): +

Molecule: 190 (SIWDDWIGY) [compound 190]
- BMP2 binding (BMP2): +

Molecule: 191 (SIWDDWIG) [compound 191]
- BMP2 binding (BMP2): −/+

Molecule: 192 (SIWDDWI) [compound 192]
- BMP2 binding (BMP2): −/+

Molecule: 193 (IWDDWIGYS) [compound 193]
- BMP2 binding (BMP2): −

Molecule: 194 (IWDDWIGY) [compound 194]
- BMP2 binding (BMP2): −

Molecule: 195 (WDDWIGY) [compound 195]
- BMP2 binding (BMP2): −

Molecule: 196 (WDDWIG) [compound 196]
- BMP2 binding (BMP2): −

Molecule: 197 (IWDDWI) [compound 197]
- BMP2 binding (BMP2): −

Molecule: SAFHSSHDSIGVFIN [SEQ ID NO: 21]
- binding affinity for ASCs [1]: highest binding affinity

Molecule: SFWHVTHDSTGVLIR [SEQ ID NO: 4]
- binding affinity for ASCs [1]: highest binding affinity

Molecule: SHCVLGHDGRSRCII [SEQ ID NO: 2]
- binding to human ASCs (human ASCs): significant binding
- binding to dermal fibroblasts (dermal fibroblasts): significant binding
- capture of rat fibroblasts (rat fibroblasts): without exhibiting significant binding
- capture of rabbit ASCs (rabbit ASCs): behaved similarly
- capture of human fibroblasts [2]: behaved similarly
- capture of human ASCs (human ASCs (hASCs)): behaved similarly

Molecule: SNWHITHDSIGVLVR [SEQ ID NO: 3]
- binding affinity for ASCs [1]: highest binding affinity

Molecule: SNWTSSHDDIGVFLR [SEQ ID NO: 29]
- binding affinity for ASCs [1]: highest binding affinity

Molecule: SSFHISHDNIGVFVR [SEQ ID NO: 9]
- binding affinity for ASCs [1]: highest binding affinity

Molecule: SSWHISHDDIGVFIR [SEQ ID NO: 6]
- binding affinity for ASCs [1]: highest binding affinity

Molecule: SSWHISHDSIGVLIR [SEQ ID NO: 1]
- binding to human ASCs (human ASCs): significant binding
- binding to dermal fibroblasts (dermal fibroblasts): significant binding
- capture of rat fibroblasts (rat fibroblasts): to a lesser extent
- capture of rabbit ASCs (rabbit ASCs): to a lesser extent
- capture of human ASCs (human ASCs (hASCs)): capture human ASCs

B1: Truncation peptide SEQ ID NO: 188 (peptide)
peptide: DWIGYSR
modifications: C-terminal GSSGK(biotin) or other spacer group possible; not stated for this assay
notes: also called DWIGYSR
- binding result (BMP2 (MEDTRONIC, INC.)): no binding

B2: Truncation peptide SEQ ID NO: 196 (peptide)
peptide: WDDWIG
modifications: C-terminal GSSGK(biotin) or other spacer group possible; not stated for this assay
notes: also called WDDWIG
- binding result (BMP2 (MEDTRONIC, INC.)): no binding

B3: Truncation peptide SEQ ID NO: 197 (peptide)
peptide: IWDDWI
modifications: C-terminal GSSGK(biotin) or other spacer group possible; not stated for this assay
notes: also called IWDDWI
- binding result (BMP2 (MEDTRONIC, INC.)): no binding

B4: Truncation peptide SEQ ID NO: 186 (peptide)
peptide: WDDWIGYSR
modifications: C-terminal GSSGK(biotin) or other spacer group possible; not stated for this assay
- binding result (BMP2 (MEDTRONIC, INC.)): no binding

B5: Truncation peptide SEQ ID NO: 193 (peptide)
peptide: IWDDWIGYS
modifications: C-terminal GSSGK(biotin) or other spacer group possible; not stated for this assay
- binding result (BMP2 (MEDTRONIC, INC.)): no binding

B6: Truncation peptide SEQ ID NO: 187 (peptide)
peptide: DDWIGYSR
modifications: C-terminal GSSGK(biotin) or other spacer group possible; not stated for this assay
- binding result (BMP2 (MEDTRONIC, INC.)): no binding

B7: Truncation peptide SEQ ID NO: 194 (peptide)
peptide: IWDDWIGY
modifications: C-terminal GSSGK(biotin) or other spacer group possible; not stated for this assay
- binding result (BMP2 (MEDTRONIC, INC.)): no binding

B8: Truncation peptide SEQ ID NO: 185 (peptide)
peptide: IWDDWIGYSR
modifications: C-terminal GSSGK(biotin) or other spacer group possible; not stated for this assay
- binding result (BMP2 (MEDTRONIC, INC.)): no binding

B9: Truncation peptide SEQ ID NO: 195 (peptide)
peptide: WDDWIGY
modifications: C-terminal GSSGK(biotin) or other spacer group possible; not stated for this assay
notes: also called WDDWIGY
- binding result (BMP2 (MEDTRONIC, INC.)): no binding
